Where no end group is shown, it is not given here. The star is where a group is joined. Maleimide‑PEG2‑Biotin = EZ Link Maleimide-PEG2-Biotin, O=C(CCCC[C@@H]1SC[C@@H]2NC(=O)N[C@@H]21)NCCOCCOCCNC(=O)CCN1C(=O)CC(*)C1=O
Assays:
[1] = molecular target: T1, Zap70 K369A (full length) (human, UniProt P43403 1-619, K369A); assay: ELISA
T1 sequence (looked up): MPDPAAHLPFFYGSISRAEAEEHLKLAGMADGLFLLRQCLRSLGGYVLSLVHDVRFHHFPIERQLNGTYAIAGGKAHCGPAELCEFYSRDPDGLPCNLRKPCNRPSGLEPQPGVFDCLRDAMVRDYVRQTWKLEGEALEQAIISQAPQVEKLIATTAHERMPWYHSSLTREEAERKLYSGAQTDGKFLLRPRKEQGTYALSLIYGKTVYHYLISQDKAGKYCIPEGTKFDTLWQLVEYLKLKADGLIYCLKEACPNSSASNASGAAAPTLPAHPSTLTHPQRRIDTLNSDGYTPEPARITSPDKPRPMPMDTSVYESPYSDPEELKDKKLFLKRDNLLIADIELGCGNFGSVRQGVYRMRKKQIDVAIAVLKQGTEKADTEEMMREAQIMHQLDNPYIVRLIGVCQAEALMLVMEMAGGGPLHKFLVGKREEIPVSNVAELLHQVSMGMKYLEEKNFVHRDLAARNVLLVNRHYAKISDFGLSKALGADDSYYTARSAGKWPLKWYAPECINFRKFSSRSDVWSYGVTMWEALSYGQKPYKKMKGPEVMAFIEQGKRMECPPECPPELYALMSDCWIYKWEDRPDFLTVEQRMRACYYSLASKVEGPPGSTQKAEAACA

[2] = molecular target: T2, Zap70 D461N (full length, kinase-inactive) (human, UniProt P43403 1-619, D461N); assay: ELISA
T2 sequence (looked up): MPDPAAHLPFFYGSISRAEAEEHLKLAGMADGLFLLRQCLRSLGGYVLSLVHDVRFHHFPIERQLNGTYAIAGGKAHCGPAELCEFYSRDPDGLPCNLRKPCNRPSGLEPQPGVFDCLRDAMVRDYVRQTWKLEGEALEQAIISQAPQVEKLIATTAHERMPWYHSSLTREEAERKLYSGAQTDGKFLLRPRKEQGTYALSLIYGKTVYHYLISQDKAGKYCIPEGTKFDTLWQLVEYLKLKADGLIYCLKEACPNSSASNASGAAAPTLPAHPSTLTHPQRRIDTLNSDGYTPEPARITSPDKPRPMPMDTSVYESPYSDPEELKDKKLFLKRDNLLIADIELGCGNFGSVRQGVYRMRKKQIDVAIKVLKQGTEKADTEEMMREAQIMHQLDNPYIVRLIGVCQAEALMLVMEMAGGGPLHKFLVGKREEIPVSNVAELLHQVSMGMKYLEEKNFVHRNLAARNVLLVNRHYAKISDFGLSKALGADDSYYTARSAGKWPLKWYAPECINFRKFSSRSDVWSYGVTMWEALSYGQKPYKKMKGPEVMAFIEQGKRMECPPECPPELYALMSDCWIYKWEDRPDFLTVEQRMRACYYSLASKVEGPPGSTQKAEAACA

[3] = molecular target: T3, Zap70 K369R (full length) (human, UniProt P43403 1-619, K369R); assay: ELISA
T3 sequence (looked up): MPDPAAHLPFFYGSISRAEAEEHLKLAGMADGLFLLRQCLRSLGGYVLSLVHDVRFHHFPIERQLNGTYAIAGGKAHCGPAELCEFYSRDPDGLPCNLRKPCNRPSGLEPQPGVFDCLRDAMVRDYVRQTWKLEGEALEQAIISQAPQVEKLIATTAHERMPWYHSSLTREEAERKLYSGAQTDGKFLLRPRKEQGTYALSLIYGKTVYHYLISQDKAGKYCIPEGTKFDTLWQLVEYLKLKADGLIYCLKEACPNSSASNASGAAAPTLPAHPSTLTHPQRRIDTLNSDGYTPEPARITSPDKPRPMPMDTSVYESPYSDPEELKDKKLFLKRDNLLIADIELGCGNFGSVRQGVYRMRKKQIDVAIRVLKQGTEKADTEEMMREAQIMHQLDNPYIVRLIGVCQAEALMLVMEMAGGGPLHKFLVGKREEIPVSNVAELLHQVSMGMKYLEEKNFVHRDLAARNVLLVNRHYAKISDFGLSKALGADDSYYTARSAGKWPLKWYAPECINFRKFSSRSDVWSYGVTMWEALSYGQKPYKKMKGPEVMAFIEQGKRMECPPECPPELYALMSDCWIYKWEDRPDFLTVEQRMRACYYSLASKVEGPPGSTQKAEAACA

[4] = molecular target: T4, wild-type Zap70 (full-length human Zap70) (human, UniProt P43403 1-619); assay: ELISA
T4 sequence (looked up): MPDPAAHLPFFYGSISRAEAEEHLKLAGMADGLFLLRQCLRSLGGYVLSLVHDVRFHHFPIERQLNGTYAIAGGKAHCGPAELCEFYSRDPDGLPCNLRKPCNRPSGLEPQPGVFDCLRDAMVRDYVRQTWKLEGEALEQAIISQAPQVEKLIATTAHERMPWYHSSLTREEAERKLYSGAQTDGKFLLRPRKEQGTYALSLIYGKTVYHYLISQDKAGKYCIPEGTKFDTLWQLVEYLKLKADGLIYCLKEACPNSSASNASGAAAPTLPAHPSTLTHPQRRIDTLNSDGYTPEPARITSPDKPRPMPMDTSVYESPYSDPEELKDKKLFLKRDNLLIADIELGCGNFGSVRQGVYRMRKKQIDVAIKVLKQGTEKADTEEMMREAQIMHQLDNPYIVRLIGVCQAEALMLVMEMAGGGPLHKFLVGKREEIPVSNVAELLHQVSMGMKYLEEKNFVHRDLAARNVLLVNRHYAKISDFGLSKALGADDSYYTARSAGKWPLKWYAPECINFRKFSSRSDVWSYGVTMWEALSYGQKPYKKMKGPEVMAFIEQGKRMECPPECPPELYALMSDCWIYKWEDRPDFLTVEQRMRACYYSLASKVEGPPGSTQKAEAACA

[5] = molecular target: T4, wild-type Zap70 (full-length human …); assay: BLI
[6] = molecular target: T1, Zap70 K369A (full length); assay: BLI
[7] = molecular target: T2, Zap70 D461N (full length, …); assay: BLI
[8] = molecular target: T3, Zap70 K369R (full length); assay: BLI

Measured: binding result

B1: GST-phosphorylated CD3γ^CD (cytosolic domain of human CD3γ, amino acids 137-182, phosphorylated by Lck) (domain or fragment)
chain: GGAGQDGVRQSRASDKQTLLPNDQLYQPLKDREDDQYSHLQGNQLRRN
modifications: also: ITAM phosphorylated by Lck, sites not given here, GST fusion
binds: [1] | [2] | [3] | [4]

B2: bio-phosphorylated CD3γ^CD (biotinylated, phosphorylated cysCD3γ^CD, human CD3γ amino acids 137-182) (domain or fragment)
chain: C(Maleimide‑PEG2‑Biotin)AGQDGVRQSRASDKQTLLPNDQLYQPLKDREDDQYSHLQGNQLRRN
modifications: also: ITAM phosphorylated by Lck, sites not given here
binds: [5] | [6] | [7] | [8]

Reference: paper PMC5490839 (Nature immunology, 2016)
